From patent US20220177587A1, “METHODS AND USES OF VARIANT CD80 FUSION PROTEINS AND RELATED CONSTRUCTS” (Alpine Immune Sciences, Inc., priority 2018, published 2022)

Tests used:
CD28 (human) [1] = molecular target: CD28 (human) (UniProt P10747); assay: flow cytometry, Jurkat cells (CD28)
human PD-L1 (human) [2] = molecular target: human PD-L1 (human) (UniProt Q9NZQ7); assay: flow cytometry, CHO cells stably expressing PD-L1
human PD-L1 (human) [3] = molecular target: human PD-L1 (human) (UniProt Q9NZQ7); assay: flow cytometry, CHO cells expressing huPD-L1
human CTLA-4 (human) = human CTLA-4 (human) (UniProt P16410); assay: flow cytometry, CHO cells expressing huCTLA4
Sequence of human CTLA-4 (human) (P16410 36-223): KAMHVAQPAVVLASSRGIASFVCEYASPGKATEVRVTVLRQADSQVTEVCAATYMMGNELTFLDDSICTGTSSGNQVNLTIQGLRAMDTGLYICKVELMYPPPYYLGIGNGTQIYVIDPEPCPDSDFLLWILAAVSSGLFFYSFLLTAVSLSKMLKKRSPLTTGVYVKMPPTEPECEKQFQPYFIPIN

CD28 (human) [4] = molecular target: CD28 (human) (UniProt P10747); assay: flow cytometry, Jurkat/IL2 reporter cells (CD28)

Sequence of human PD-L1 (human) (Q9NZQ7 19-290): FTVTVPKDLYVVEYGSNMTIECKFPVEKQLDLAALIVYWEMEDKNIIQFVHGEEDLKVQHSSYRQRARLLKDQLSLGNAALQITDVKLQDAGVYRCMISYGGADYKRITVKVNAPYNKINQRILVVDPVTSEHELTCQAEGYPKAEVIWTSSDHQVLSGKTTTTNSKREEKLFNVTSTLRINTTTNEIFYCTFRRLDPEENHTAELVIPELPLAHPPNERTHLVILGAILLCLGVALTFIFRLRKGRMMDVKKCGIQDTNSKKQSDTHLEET

Row | Binder | MFI at 33.3 nM (human PD-L1 (human) [3]) [MFI] | MFI at 33.3 nM (human CTLA-4 (human)) [MFI] | MFI at 33.3 nM (CD28 (human) [4]) [MFI] | also measured
1 | CD80 ECD (SEQ ID NO:2)-Fc (inert) with GSG4S linker (Fc fusion) VIHVTKEVKEVATLSCGHNVSVEELAQTRIYWQKEKKMVLTMMSGDMNIWPEYKNRTIFDITNNLSIVILALRPSDEGTYECVVLKYEKDAFKREHLAEVTLSVKADFPTPSISDFEIPTSNIRRIICSTSGGFPEPHLSWLENGEELNAINTTVSQDPETELYAVSSKLDFNMTTNHSFMCLIKYGHLRVNQTFNWNTTKQEHFPDNGSGGGGS | – | – | – | MFI at 33.3 nM (CD28 (human) [1]): 37 MFI; MFI at 33.3 nM (human PD-L1 (human) [2]): 35 MFI
2 | variant CD80 IgV-Fc E35D/D46V/M47L/V68M/L85Q/E88D (Fc fusion) VIHVTKEVKEVATLSCGHNVSVEELAQTRIYWQKDKKMVLTMMSGVLNIWPEYKNRTIFDITNNLSIMILALRPSDEGTYECVVQKYDKDAFKREHLAEVTLSVKAD | 137000 | – | – | –
3 | variant CD80 IgV-Fc E35D/A71G (Fc fusion) VIHVTKEVKEVATLSCGHNVSVEELAQTRIYWQKDKKMVLTMMSGDMNIWPEYKNRTIFDITNNLSIVILGLRPSDEGTYECVVLKYEKDAFKREHLAEVTLSVKAD | 34100 | 184000 | – | –
4 | variant CD80 IgV-Fc H18Y/E35D/N48K (Fc fusion) VIHVTKEVKEVATLSCGYNVSVEELAQTRIYWQKDKKMVLTMMSGDMKIWPEYKNRTIFDITNNLSIVILALRPSDEGTYECVVLKYEKDAFKREHLAEVTLSVKAD | – | 261000 | – | –
5 | variant CD80 IgV-Fc E35D/M47V/A71G (Fc fusion) VIHVTKEVKEVATLSCGHNVSVEELAQTRIYWQKDKKMVLTMMSGDVNIWPEYKNRTIFDITNNLSIVILGLRPSDEGTYECVVLKYEKDAFKREHLAEVTLSVKAD | 36200 | – | 6360 | –
6 | variant CD80 IgV-Fc E35D/D46E/M47V/A71D/D90G (Fc fusion) VIHVTKEVKEVATLSCGHNVSVEELAQTRIYWQKDKKMVLTMMSGEVNIWPEYKNRTIFDITNNLSIVILDLRPSDEGTYECVVLKYEKGAFKREHLAEVTLSVKAD | 32400 | 275000 | – | –
7 | variant CD80 IgV-Fc E35D/K37E/M47V/N48D/L85Q/D90N (Fc fusion) VIHVTKEVKEVATLSCGHNVSVEELAQTRIYWQKDKEMVLTMMSGDVDIWPEYKNRTIFDITNNLSIVILALRPSDEGTYECVVQKYEKNAFKREHLAEVTLSVKAD | 26500 | – | – | –
8 | variant CD80 IgV-Fc E35D/T41S/M43I/A71G/D90G (Fc fusion) VIHVTKEVKEVATLSCGHNVSVEELAQTRIYWQKDKKMVLSMISGDMNIWPEYKNRTIFDITNNLSIVILGLRPSDEGTYECVVLKYEKGAFKREHLAEVTLSVKAD | – | 208000 | – | –
9 | variant CD80 IgV-Fc E35D/D46E/M47V/A71D (Fc fusion) VIHVTKEVKEVATLSCGHNVSVEELAQTRIYWQKDKKMVLTMMSGEVNIWPEYKNRTIFDITNNLSIVILDLRPSDEGTYECVVLKYEKDAFKREHLAEVTLSVKAD | 549 | – | – | –
10 | variant CD80 IgV-Fc (inert) H18Y/A26P/E35D/M47V/V68M/A71G (Fc fusion) VIHVTKEVKEVATLSCGYNVSVEELPQTRIYWQKDKKMVLTMMSGDVNIWPEYKNRTIFDITNNLSIMILGLRPSDEGTYECVVLKYEKDAFKREHLAEVTLSVKAD | – | – | – | MFI at 33.3 nM (CD28 (human) [1]): 6910 MFI; MFI at 33.3 nM (human PD-L1 (human) [2]): 51500 MFI
11 | variant CD80 IgV-Fc V22D/E35D/M47L/L70M/L97Q (Fc fusion) VIHVTKEVKEVATLSCGHNVSDEELAQTRIYWQKDKKMVLTMMSGDLNIWPEYKNRTIFDITNNLSIVIMALRPSDEGTYECVVLKYEKDAFKREHQAEVTLSVKAD | – | – | 527 | –
12 | variant CD80 IgV-Fc E35D/M47L/A71G/L85Q (Fc fusion) VIHVTKEVKEVATLSCGHNVSVEELAQTRIYWQKDKKMVLTMMSGDLNIWPEYKNRTIFDITNNLSIVILGLRPSDEGTYECVVQKYEKDAFKREHLAEVTLSVKAD | – | – | 1440 | –
13 | variant CD80 IgV-Fc M47L/L85Q (Fc fusion) VIHVTKEVKEVATLSCGHNVSVEELAQTRIYWQKEKKMVLTMMSGDLNIWPEYKNRTIFDITNNLSIVILALRPSDEGTYECVVQKYEKDAFKREHLAEVTLSVKAD | 5800 | – | 88.1 | –
